The record followed here is publication PMC12649893 (Biosensors, 2025).

Holding throughout (conditions): both partners purified
The target in assay [1] is T1, Nectin-like protein 5 (NECL-5 or CD155) extracellular fragment (UniProt P15151).
T1 construct: Nectin-like protein 5 (NECL-5, CD155, poliovirus receptor), extracellular fragment, residues 28-343 of NP_001129242.2; also called poliovirus receptor; source: CHO, transient transfection, purified (Ni-NTA, SEC Superdex 75)
Put plainly: BLI; standard measurement of kinetics with the immobilization of antibodies on AR2G sensors (Sartorius). (In BLI a coated tip is dipped into the sample, and binding shifts an interference pattern.)

Assay [2] deals with T1, Nectin-like protein 5 (NECL-5 or CD155) …. Put plainly: BLI; biotinylated FcγRIa on SA sensors (5 μg/mL, to 1 nm), antibodies for 300 s, then antigens 10 μg/mL for 600 s; kinetic buffer pH 7.4, 30 °C; constants from the empirical model Equation (A1), k_diss fixed.
The target is the same in assay [3]. Put plainly: BLI; biotinylated FcγRIIIa on SA sensors (5 μg/mL, to 1 nm), antibodies for 300 s, then antigens 10 μg/mL for 300 s; kinetic buffer pH 7.4, 30 °C; constants from the empirical model Equation (A1), k_diss fixed.
The target of assay [4] is T2, Blood dendritic cell antigen 2 of macaca fascicularis (cBDCA-2) extracellular fragment (Macaca fascicularis, UniProt A0A2K5UWP4).
T2 construct: Blood dendritic cell antigen 2 (BDCA-2) of Macaca fascicularis, extracellular fragment, residues 45-213 of XP_005570080.1; source: CHO, transient transfection, purified (Ni-NTA, SEC Superdex 75)
Put plainly: BLI; ProA sensors; antibodies loaded at 10 micrograms/mL for 300 s, antigens 10 μg/mL, association 7200 s; 30 °C, PBS, 0.1% Tween 20, 0.1% BSA, pH 7.4; constants from the empirical model Equation (A1), k_diss fixed.

In assay [5] the target is T3, Triggering receptor expressed on myeloid cells 2 (TREM-2) extracellular fragment (UniProt Q9NZC2-1).
T3 construct: Triggering receptor expressed on myeloid cells 2 (TREM-2), extracellular fragment, residues 19-174 of NP_061838.1; source: CHO, transient transfection, purified (Ni-NTA, SEC Superdex 75)
T3 sequence (Q9NZC2 19-174): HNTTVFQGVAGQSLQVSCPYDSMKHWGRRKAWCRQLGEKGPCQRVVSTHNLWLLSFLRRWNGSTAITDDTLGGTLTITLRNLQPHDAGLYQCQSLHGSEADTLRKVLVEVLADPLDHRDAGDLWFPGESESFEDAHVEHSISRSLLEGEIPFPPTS
The description is as above.

For assay [6], the target named is T1, Nectin-like protein 5 (NECL-5 or CD155) …. The description is as above.
The target is the same in assay [7]. Put plainly: BLI; biotinylated FcRn on SA sensors (5 μg/mL, to 1 nm), antibodies 10 μg/mL for 180 s, then antigens 20 μg/mL for 300 s; kinetic buffer pH 6.0, 30 °C; constants from the empirical model Equation (A1), k_diss fixed.
Assay [8] has as its target T2, Blood dendritic cell antigen 2 of …. Put plainly: BLI; standard measurement of kinetics with the immobilization of antibodies on AR2G sensors (Sartorius).
The target is the same in assay [9]. Put plainly: BLI; biotinylated FcγRIa on SA sensors (5 μg/mL, to 1 nm), antibodies for 300 s, then antigens 10 μg/mL for 600 s; kinetic buffer pH 7.4, 30 °C; constants from the empirical model Equation (A1), k_diss fixed.
For assay [10] the target is unchanged. Put plainly: BLI; biotinylated FcγRIIIa on SA sensors (5 μg/mL, to 1 nm), antibodies for 300 s, then antigens 10 μg/mL for 300 s; kinetic buffer pH 7.4, 30 °C; constants from the empirical model Equation (A1), k_diss fixed.
In assay [11] the target is T1, Nectin-like protein 5 (NECL-5 or CD155) …. Put plainly: BLI; ProA sensors; antibodies loaded at 10 micrograms/mL for 300 s, antigens 10 μg/mL, association 7200 s; 30 °C, PBS, 0.1% Tween 20, 0.1% BSA, pH 7.4; constants from the empirical model Equation (A1), k_diss fixed. This is another data set of the same source.
In assay [12] the target is T2, Blood dendritic cell antigen 2 of …. The assay is described as above. The source holds these as a separate data set.
Assay [13] shares this target. Put plainly: BLI; biotinylated FcRn on SA sensors (5 μg/mL, to 1 nm), antibodies 10 μg/mL for 180 s, then antigens 20 μg/mL for 300 s; kinetic buffer pH 6.0, 30 °C; constants from the empirical model Equation (A1), k_diss fixed.

T1 sequence (P15151 28-343): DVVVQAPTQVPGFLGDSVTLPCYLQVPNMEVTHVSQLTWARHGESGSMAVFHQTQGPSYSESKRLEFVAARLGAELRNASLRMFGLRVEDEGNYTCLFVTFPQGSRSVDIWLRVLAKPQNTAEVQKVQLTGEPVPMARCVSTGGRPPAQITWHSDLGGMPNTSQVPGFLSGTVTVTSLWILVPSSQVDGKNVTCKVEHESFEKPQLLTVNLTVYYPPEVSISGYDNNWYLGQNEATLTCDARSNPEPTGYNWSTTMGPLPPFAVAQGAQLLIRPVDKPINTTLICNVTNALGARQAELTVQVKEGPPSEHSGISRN

B1: AB2 antibody specific to NECL-5 (NTX1088) (antibody, V domains shown)
VH: QVQLVQSGAEVKKPGASVKVSCKATGYTFSNYWIEWVRQAPGQGLEWIGEIFPGSGRINFNEKFKGRVTFTADTSISTTYMELSRLRSDDTAVYYCARTKIYGNSFDYWGQGTLVTVSS
VL: DIQMTQSPSSLSASVGDRVTITCKASQDVGTAVVWYQQKPGKAPKLLIYWASSRHEGVPDRFSGSGSGTDFTLTISSLQPEDFADYFCQQYSRYPLTFGQGTKLEIK
In [1], B1 came in with a koff of 0.00105 s⁻¹. The on-rate (kon) in assay [1] was determined as 179000 M⁻¹ s⁻¹; in assay [2], 99000 M⁻¹ s⁻¹; in assay [3], 39500 M⁻¹ s⁻¹; in [6], 52000 M⁻¹ s⁻¹; in [7], 20000 M⁻¹ s⁻¹. Further, the binding result in assay [4] and in [5] was “no binding (tested: 10 μg/mL)” each time.

B2: AB1 antibody specific to BDCA-2 (BIIB059) (antibody, V domains shown)
VH: DVQLVESGGGLVKPGGSLRLSCAASGFTFSTYTMSWVRQAPGKGLEWVATISPGDSFGYYYPDSVQGRFTISRDNAKNSLYLQMNSLRAEDTAVYYCTRDIYYNYGAWFAYWGQGTLVTVSS
VL: DIQLTQSPSSLSASVGDRVTITCKASQSVDYDGDSYMNWYQQKPGKAPKLLIYAASTLESGVPSRFSGSGSGTDFTLTISSLQPEDFATYYCQQANEDPRTFGQGTKVEIK
As for B2, the koff in assay [8] stood at 3.72e-05 s⁻¹. Moreover, the association rate constant (kon) in assay [8] was found to be 134000 M⁻¹ s⁻¹; in [9], 265000 M⁻¹ s⁻¹; in assay [10] it was 470000 M⁻¹ s⁻¹; in assay [12] it was 12000 M⁻¹ s⁻¹; in assay [13], 180000 M⁻¹ s⁻¹. The binding result in assay [11] and in [5] was “no binding (tested: 10 μg/mL)” in each case.

The term koff denotes the rate constant with which the complex falls apart. Read a high koff as a short-lived complex. As a reminder, the kon is the rate constant with which the complex forms. Low values mean slow association, high ones fast association.
